Test system: K4 kissing-loop RNA reporter
Experiment: apparent KD of K4 kissing-loop reporter; higher = weaker reporter binding
Conditions: Eterna round: R107
Description: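 RNA-MaP round R107: designed RNA switches with theophylline, tryptophan, arginine or FMN aptamers are transcribed on-chip within common flanks. They are titrated with a labelled K4 kissing-loop RNA reporter in RNA-MaP buffer (100 mM Tris pH 7.5, 80 mM KCl, 4 mM MgCl2), without ligand or with the indicated ligand. Median apparent KD per design.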

[1] = input ligand: theophylline 20 uM
[2] = input ligand: tryptophan 2.4 mM
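Note: bound reporter read as fluorescence of individual clusters on recovered sequencing chips by microscopy, with normalized cluster intensities fitted with a binding model.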

Row | Sequence | apparent KD of K4 kissing-loop reporter (input ligand: FMN 200 uM) | apparent KD of K4 kissing-loop reporter (input ligand: arginine 13.2 mM) | apparent KD of K4 kissing-loop reporter (input ligand: none) | apparent KD of K4 kissing-loop reporter [1] | apparent KD of K4 kissing-loop reporter [2]
1 | AAAAUAAAUAGCAGUCAUGGAGUGAUGUUCCGAGGACCGGUACGGCCGCCACUCGACCAUCAUAAGAUGGAAUGGCAAGACUGCA [#SwitchBubble 23 #K4Early] | 330 nM | 265 nM | 358 nM | 418 nM | 208 nM
2 | AAAAUAAAUCAGUGAUGUUGGUAUCUGGAUACCAGCGAUAAUAGUCGCCCUUGGCAGCCAUGGACGUACAAAAUAAGUACGUCCU [MatMod 19 - Jieux - Same State - Theophylline A] | 221 nM | 117 nM | 183 nM | 170 nM | 160 nM
3 | AAAAUUGCGGUCGAAAGAACUUCUUGCAUACGAGGACCGGUACGGCCGCCACUCGAGUCAAGUGAUGUUUGAUUUUCUAUUAUUA [JR_ExcTryptoA_Sub013] | 135 nM | 170 nM | 160 nM | 205 nM | 153 nM
4 | AAACCAAUCAGAGGAUAUUCUUUAUUCGACAUAAAUUUCUAUAAAUUGCAGUGAUGUUGCAAUAUAGGAGAAGGCUGAUUGACAA [Exclusion FMN B Gf 12] | 239 nM | 199 nM | 204 nM | 229 nM | 223 nM
5 | AAACGUUGGUGCGAUACCAGCUGCUCGGAAACGAGCUUGCUGGAGUGAUGUUCCAGGAAAAGCCCUUGGCAGCGCACCGACGAAA [MAT - Same State Theophlline B - Mod of Eli - D27] | 856 nM | 561 nM | 2040 nM | 738 nM | 715 nM
6 | AAAGAUCUUCUAGAAACUAGAAGAUCAAGAGAGGAUAUCCGAAUUCGGAGAAGGCUCACUAAGUGAUGUUUGGAGGGAAUCCCAA [AK1 SS FMN A] | 1250 nM | 805 nM | 1670 nM | 1290 nM | 1360 nM
7 | AAAGAUGCGUCGGCCGCCACUGUUGCCAGUGAUGUUGGCAUGUAGAUGCAGUGAUGUUGCGUUUUCAGGACCGGGACGUAAGAUG [5th] | 261 nM | 253 nM | 302 nM | 246 nM | 134 nM
8 | AAAGUCGGCUGUGAUACCAGUCAUAUAACAACAUAUCGCAGUGAUGUUGCGAGAUAGGAUGACCCUUGGCAGCACUCAGUACGAU [Same State Theophylline B GF 6] | 349 nM | 360 nM | 380 nM | 331 nM | 338 nM
9 | AAAUAAAUCACGGCCGCCACUGCUAGAGUGAUGUUCUAUUAAUAAUUUCUAAAUUAUAUAAUACUCAGGACCGGGUGAUUUUUAA [JR_SSTryptoB_Sub020] | 578 nM | 215 nM | 355 nM | 426 nM | 446 nM
10 | AAAUAAAUGGCGGCCGCCACUGAACGCCUCCGCGUGGGUAUAUAGUGAUGUUAUAUGGCCGCCAUCAGGACCGGGCCAAAUAAAA [#08 K4 Tryptophan B Same State] | 330 nM | 259 nM | 502 nM | 377 nM | 222 nM
11 | AAAUAGCUGACGUUGAGUGGGAGCCAGGCACGAGGACCGGUACGGCCGCCACUCGACUAGGUUUUCAGUGAUGUUGAAAAUUUAA [Exclusion Tryptophan A GF 5] | 239 nM | 249 nM | 206 nM | 224 nM | 194 nM
12 | AAAUAUUGUUACCUGUUAACAUAGGGCCAACGAGGACCGGUACGGCCGCCACUCGUCUCAUAGCGAGUGAUGUUCGCACCGCCCA | 133 nM | 58.2 nM | 76.6 nM | 123 nM | 126 nM
13 | AAAUUCUUUUUUUUAUUUAACUUUUCAGAAGGAGCGUGGUAGUACACAGGUAGGUCGCUGAAUUUUAGACUAGUGAUGUUAGUUA [JR_SSArginiA_Sub008] | 130 nM | 156 nM | 190 nM | 182 nM | 151 nM
14 | AACUCUCAGGCACGCGAGUGAUGUUCGCGGCGAGGACCGGUACGGCCGCCACUCGCGCCUGAGAGAGGUUAUCAAAGAUAGCCAA [whbob_SS_tryp_A] | 146 nM | 51.3 nM | 116 nM | 118 nM | 223 nM
